Measured values taken from paper doi:10.1101/218669.

Target: Pragmin 906-1368 (Pragmin C) (Rattus norvegicus) (UniProt D3ZMK9)
Assay: MALLS + DLS + SAXS

- stoichiometry N: 2
Substance: Pragmin 906-1368 (Pragmin C) (from UniProt D3ZMK9 906-1368) (domain or fragment)
